For assay [1], the target named is ADM (human or mouse not told for the control row of Table 3). The assay can be described thus: cell-based or functional assay.
Assay [2] has as its target human recombinant adrenomedullin receptor (CRLR+RAMP3) (human).
For assay [3] the target is unchanged. The source holds these as a separate data set.

Where two headings read alike, the source gives them in different places.

The substance Non specific mouse IgG (antibody) came in with a Maximal inhibition of ADM bioactivity (ADM-Bioassay) (%) in assay [1] of 0%.

Consider “hADM 22-52 (on the sheet: antagonist) (peptide)”, for which the values for the IC50 (read off the curve) in assay [2] and in assay [3] were 0.2 µM and 3 µM, respectively.

The record behind these values is US20140328853A1.
